The values that follow come from patent publication US9522945B2 (OPKO Biologics Ltd., priority 2012, dated 2016).

A word on the Tmax: it is the time from dosing to the highest level. A word on the AUC(0-t): it is exposure summed from dosing to a finite time, without extrapolation to infinity. Low readings indicate less exposure, high ones more exposure. As usually defined, the MRT is the average time that molecules of a dose stay in the body. What is called Cmax is the maximum level reached in the sampled fluid or tissue.

In series [1] the test system is C57BL/6 mice. Kind of series: IP glucose tolerance test (IPGTT). The format is in vivo. As to conditions: for effect on glucose levels / glucose tolerance, in words: Experiment 1, 100 nmol/kg IP 15 min prior to glucose IP (1.5 g/kg).
Protocol: Overnight-fasted mice were measured for glucose (pre-dose glucose). Immediately after, they were IP injected with one of the test articles. […] Blood glucose level were measured by tail vein sampling using a handheld glucometer.
Series [2] has as its system C57BL/6 mice. Description: Acute food intake study. The format is in vivo.
Protocol: At least one week before injection, mice were weighed and were transferred to a mini cage for acclimatization, (one mouse per cage). During the acclimatization period, they were handled daily and received two injections of vehicle to minimize stress during the study period. The day before the experiment, the mice were fasted. […] After injection, the mice were returned to their home cages (1 mouse per cage), and provided with a pre-weighed amount of chow. Food intake were measured 0, 1, 2, 4, 6, 8, 21, 32 and 44, 55, 68, 80, 93 and 141 h post injection by weighing the chow.
In this study, the acute effect on food intake was measured.
Details of series [3]: species or system rats. As to conditions: rat, in vivo.
Description: Cohorts of 3 animals per group were bled at alternating time points. […] The study was divided into 3 sequential experiments, Experiment #1 (Groups 1-4), Experiment #2 (Groups 5-9) and Experiment #3 (Groups 10-13).

Where two headings read alike, the source gives them in different places.
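Wherever CL is given: blood drawn at alternating time points, with three animals in each cohort.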
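Wherever Tmax is given: blood drawn at alternating time points, with three animals in each cohort.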
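Wherever Vd is given: blood drawn at alternating time points, with three animals in each cohort.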
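Wherever pharmacokinetic profile / PK parameters, comparison in words is given: blood drawn at alternating time points, with three animals in each cohort.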

B1: OXM-CTP-CTP-CTP-CTP: oxyntomodulin with four CTPs on the carboxy terminus, SEQ ID NO: 27 (protein)
chain: MATGSRTSLLLAFGLLCLPWLQEGSAHSQGTFTSDYSKYLDSRRAQDFVQWLMNTKRNRNNIASSSSKAPPPSLPSPSRLPGPSDTPILPQSSSSKAPPPSLPSPSRLPGPSDTPILPQSSSSKAPPPSLPSPSRLPGPSDTPILPQSSSSKAPPPSLPSPSRLPGPSDTPILPQ
modifications: OXM-CTPx4
As to B1, the “glucose tolerance activity when administered 120 min prior to glucose” value in the series with C57BL/6 mice [1] (Experiment 2, 100 nmol/kg IP 120 min prior to glucose) is “induced glucose tolerance activity”. The “inhibition of food intake, comparison in words” value in the series with C57BL/6 mice [2] (single administration, mice) is “did not last as long as OXM-CTPx5 or OXM-CTPx3”. In series [3], the “pharmacokinetic profile / PK parameters, comparison in words” value (from here on “pharmacokinetic profile / PK parameters”) is recorded as “superior in these parameters compared to other variants”. Moreover, in series [3] (sc), the CL stood at 0.3554 L/h/kg, the Tmax was 2.0 h and the Vd worked out at 5.3796 L/kg.

B2: CTP-CTP-OXM: oxyntomodulin with two CTPs on the amino terminus, SEQ ID NO: 23 (protein)
chain: MATGSRTSLLLAFGLLCLPWLQEGSASSSSKAPPPSLPSPSRLPGPSDTPILPQSSSSKAPPPSLPSPSRLPGPSDTPILPQHSQGTFTSDYSKYLDSRRAQDFVQWLMNTKRNRNNIARSGCGRGTLGLMGLPFTARFP
modifications: CTPx2-OXM
Consider B2, for which the “effect on glucose levels / glucose tolerance, in words” value in the series with C57BL/6 mice [1] is “minor impact on glucose tolerance”. Further, in series [3], the Bioavailability was determined as 23.36% and the “bioavailability as calculated from Experiments 1 & 2, change in words” value (from here on “bioavailability as calculated … change in words”) was “no significant improvement”. Besides, in series [3] (iv, 230 ug/kg), the “AUC(0-t)” value was 0.4886 µg·h/mL, the “AUC∞” value was 0.4904 µg·h/mL, the CL turned out to be 0.4333 L/h/kg and the MRT was 0.86 h. In series [3] (iv, 230 ug/kg), this molecule returned a T½ of 0.27 h, a T½β of 1.20 h and a Vd of 0.7481 L/kg. In addition, in series [3] (sc, 230 ug/kg), the area under the curve AUC(0-t) turned out to be 0.11415 µg·h/mL, the “AUC∞” value was 0.12985 µg·h/mL, the CL was determined as 1.63655 L/h/kg and the maximum concentration (Cmax) worked out at 0.02777 µg/mL. In series [3] (sc, 230 ug/kg), the mean residence time (MRT) turned out to be 4.10 h, the Tmax came out at 1.00 h, the T½ is 2.74 h and the Vd is 6.45976 L/kg.

B3: OXM-CTP-CTP: oxyntomodulin with two CTPs in tandem on the carboxy terminus, SEQ ID NO: 21, expressed in CHO cells (protein)
chain: LEDMATGSRTSLLLAFGLLCLPWLQEGSAHSQGTFTSDYSKYLDSRRAQDFVQWLMNTKRNRNNIASSSSKAPPPSLPSPSRLPGPSDTPILPQSSSSKAPPPSLPSPSRLPGPSDTPILPQ
modifications: OXM-CTP-CTP
As to B3, in series [3], the “pharmacokinetic profile / PK parameters” value is “superior PK parameters as compared to the CTP-OXM-CTP-CTP variant”. In addition, in series [3] (sc, 230 ug/kg), the “AUC(0-t)” value is 0.697 µg·h/mL, the “AUC∞” value was found to be 0.7021 µg·h/mL, the CL was 0.3027 L/h/kg and the Cmax was 0.0509 µg/mL. Besides, in series [3] (sc, 230 ug/kg), the MRT turned out to be 8.20 h, the Tmax amounted to 6.00 h, the T½ came out at 4.76 h and the Vd stood at 2.0789 L/kg.

B4: CTP-OXM-CTP-CTP: oxyntomodulin with one CTP on the amino terminus and two on the carboxy terminus, SEQ ID NO: 15 (protein)
chain: MATGSRTSLLLAFGLLCLPWLQEGSASSSSKAPPPSLPSPSRLPGPSDTPILPQHSQGTFTSDYSKYLDSRRAQDFVQWLMNTKRNRNNIASSSSKAPPPSLPSPSRLPGPSDTPILPQSSSSKAPPPSLPSPSRLPGPSDTPILPQ
modifications: CTP-OXM-CTP-CTP
As for B4, in series [3], the Bioavailability was 32.43% and the “bioavailability as calculated … change in words” value is listed as “increased”. Further, in series [3] (iv, 230 ug/kg), the exposure AUC(0-t) is 0.9682 µg·h/mL, the “AUC∞” value was 0.9774 µg·h/mL, the CL was 0.2174 L/h/kg and the mean residence time MRT stood at 0.80 h. Further, in series [3] (iv, 230 ug/kg), the T½ came to 0.28 h, the T½β is 1.61 h and the Vd was determined as 0.5064 L/kg. Besides, in series [3] (sc, 230 ug/kg), the “AUC(0-t)” value is 0.31398 µg·h/mL, the “AUC∞” value was 0.32086 µg·h/mL, the CL was 0.66228 L/h/kg and the highest concentration (Cmax) was determined as 0.03018 µg/mL. Moreover, in series [3] (sc, 230 ug/kg), the MRT was determined as 6.62 h, the time to peak (Tmax) stood at 6.00 h, the T½ was 4.39 h and the Vd was determined as 4.13925 L/kg.

B5: OXM-CTP-CTP-CTP-CTP-CTP: oxyntomodulin with five CTPs on the carboxy terminus, SEQ ID NO: 29 (protein)
chain: MATGSRTSLLLAFGLLCLPWLQEGSAHSQGTFTSDYSKYLDSRRAQDFVQWLMNTKRNRNNIASSSSKAPPPSLPSPSRLPGPSDTPILPQSSSSKAPPPSLPSPSRLPGPSDTPILPQSSSSKAPPPSLPSPSRLPGPSDTPILPQSSSSKAPPPSLPSPSRLPGPSDTPILPQSSSSKAPPPSLPSPSRLPGPSDTPILPQ
modifications: OXM-CTPx5
Consider B5, for which the “cumulative food inhibition sustained for” value with C57BL/6 mice [2] (cumulative food intake, mice) is given as “at least 141 hrs”. Moreover, the “time for which food intake was reduced compared to vehicle” value in the series on C57BL/6 mice [2] (single SC 1700 nmol/kg, male C57BL/6 mice) was found to be 5 days. The “duration of food intake inhibition, percentage of food intake per time interval” value in the series on C57BL/6 mice [2] (time intervals over the experiment (FIG. 6B), single SC, male C57BL/6 mice) is “about 80 hours”. Further, in series [3], the “pharmacokinetic profile / PK parameters” value was “superior in these parameters compared to other variants”. For the same molecule, in series [3] (sc), the CL stood at 0.3462 L/h/kg, the Tmax turned out to be 8 h, the T½ is 9.63 h and the Vd amounted to 4.812 L/kg.

B6: OXM-CTP-CTP-CTP: oxyntomodulin with three CTPs on the carboxy terminus, SEQ ID NO: 25 (protein)
chain: MATGSRTSLLLAFGLLCLPWLQEGSAHSQGTFTSDYSKYLDSRRAQDFVQWLMNTKRNRNNIASSSSKAPPPSLPSPSRLPGPSDTPILPQSSSSKAPPPSLPSPSRLPGPSDTPILPQSSSSKAPPPSLPSPSRLPGPSDTPILPQ
modifications: OXM-CTPx3
In the case of B6, in series [3] (sc), the CL was found to be 0.5128 L/h/kg, the Tmax worked out at 2.0 h, the T½ stood at 3.78 h and the Vd is 2.797 L/kg.

B7: CTP-OXM-CTP: oxyntomodulin with one CTP on the amino terminus and one on the carboxy terminus, SEQ ID NO: 9 (protein)
chain: MATGSRTSLLLAFGLLCLPWLQEGSASSSSKAPPPSLPSPSRLPGPSDTPILPQHSQGTFTSDYSKYLDSRRAQDFVQWLMNTKRNRNNIASSSSKAPPPSLPSPSRLPGPSDTPILPQ
modifications: CTP-OXM-CTP
With B7, the “effect on glucose levels / glucose tolerance, in words” value with C57BL/6 mice [1] is listed as “increased glucose levels”. In addition, in series [3], the Bioavailability was determined as 24.44% and the “bioavailability as calculated … change in words” value is reported as “no significant improvement”. In series [3] (iv, 230 ug/kg), the “AUC(0-t)” value came out at 0.5927 µg·h/mL, the “AUC∞” value turned out to be 0.598 µg·h/mL, the CL worked out at 0.3553 L/h/kg and the MRT was found to be 0.81 h. In series [3] (iv, 230 ug/kg), this molecule registered a T½ of 0.25 h, a T½β of 1.57 h and a Vd of 0.8069 L/kg. Further, in series [3] (sc, 230 ug/kg), the exposure AUC(0-t) was determined as 0.14487 µg·h/mL, the “AUC∞” value is 0.17082 µg·h/mL, the CL amounted to 1.24397 L/h/kg and the highest concentration (Cmax) is 0.03111 µg/mL. Further, in series [3] (sc, 230 ug/kg), the mean residence time (MRT) was determined as 4.73 h, the time of peak concentration (Tmax) was 1.00 h, the T½ was 3.28 h and the Vd worked out at 5.88775 L/kg.
